According to patent publication US20230212306A1 (Daiichi Sankyo, published 2023):

T1: human TLR7-Flag-His×6 (human TLR7 variant 2), expressed in Ba/F3 cells together with human Unc93B1-HA×2 (human, UniProt Q9NYK1 27-1049)
T1 construct: Cells were permeabilised with 0.1% saponin before staining; also called hTLR7-Flag-His×6; not shown: Flag-His×6 tag added to the C-terminus
T1 sequence: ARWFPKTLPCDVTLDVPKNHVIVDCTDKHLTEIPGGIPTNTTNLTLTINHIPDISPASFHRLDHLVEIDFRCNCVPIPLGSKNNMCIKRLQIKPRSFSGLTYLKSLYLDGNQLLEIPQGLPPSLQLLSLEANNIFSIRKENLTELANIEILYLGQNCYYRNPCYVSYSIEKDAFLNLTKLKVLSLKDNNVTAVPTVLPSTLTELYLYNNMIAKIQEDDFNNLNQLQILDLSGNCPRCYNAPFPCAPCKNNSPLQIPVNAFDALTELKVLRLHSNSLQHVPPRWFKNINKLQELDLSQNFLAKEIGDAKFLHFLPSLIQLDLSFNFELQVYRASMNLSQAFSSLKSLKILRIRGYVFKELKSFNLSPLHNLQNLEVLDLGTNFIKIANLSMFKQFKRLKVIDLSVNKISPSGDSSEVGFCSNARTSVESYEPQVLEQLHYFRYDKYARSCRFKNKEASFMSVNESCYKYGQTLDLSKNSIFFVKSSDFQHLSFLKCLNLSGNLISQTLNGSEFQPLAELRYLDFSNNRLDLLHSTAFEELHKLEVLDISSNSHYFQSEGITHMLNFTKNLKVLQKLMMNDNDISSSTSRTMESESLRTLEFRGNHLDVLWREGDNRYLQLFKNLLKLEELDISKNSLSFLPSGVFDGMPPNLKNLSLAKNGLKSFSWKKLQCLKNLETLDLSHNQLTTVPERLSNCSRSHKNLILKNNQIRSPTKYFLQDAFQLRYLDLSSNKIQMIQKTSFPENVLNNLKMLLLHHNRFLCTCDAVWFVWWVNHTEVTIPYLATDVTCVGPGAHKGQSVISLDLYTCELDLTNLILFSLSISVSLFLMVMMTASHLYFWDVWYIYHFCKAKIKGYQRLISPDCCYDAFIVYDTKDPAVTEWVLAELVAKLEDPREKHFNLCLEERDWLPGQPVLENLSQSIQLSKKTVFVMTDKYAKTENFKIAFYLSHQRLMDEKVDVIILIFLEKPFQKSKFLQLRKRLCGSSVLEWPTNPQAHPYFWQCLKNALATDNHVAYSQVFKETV


Each binder was assayed against T1, human TLR7-Flag-His×6 (human TLR7 …) (assay: flow cytometry (MFI), antibody dilution series on saponin-permeabilised Ba/F3 cells expressing human TLR7-Flag-His×6/hUnc93B1-HA×2).
Method: A Ba/F3 cell line expressing human TLR7-Flag-His×6/hUnc93B1-HA×2 was subjected to membrane permeation with 0.1% Saponin and stained using the dilution series of chimeric AT01 antibody, NB7 antibody, and FAN2 antibody at the antibody concentrations obtained in Example 4, and the secondary antibody, Goat anti-human IgG Fc-PE (eBioscience). The binding activity of each antibody was evaluated by comparing the MFI based on flow cytometry analysis.

Row | binding result | Binder
1 | binds | cAT01 antibody (antibody, human IgG1, V domains shown, Mouse variable regions on human IgG1 / human kappa constant regions; also called chimeric AT01 antibody; AT01 chimeric anti-human TLR7 antibody) VH: QVQLQQPGAELVKPGASVNLSCKASGYTFTNNWLHWVKQRPGRGLEWIGDIYPSNGRTNYNEQFKTKATLTVDKSSSTAYMQLSSLTSEDSAVYFCARERGYFDYWGQGTALTVSS VL: DIQMTQSPSSLSTSLGGKVTITCKASQDINKYIAWYQHKPGKGPRLLIHYTSTLQPGIPSRFSGSGSGRDYSFSISNLEPEDIATYYCLQYDYLLTFGAGTKLELKR
2 | binds | cFAN2 antibody (antibody, human IgG1, V domains shown, Mouse variable regions on human IgG1 / human kappa constant regions; also called chimeric FAN2 antibody; FAN2 chimeric anti-human TLR7 antibody) VH: QVQLKESGPGLVAPSQSLSITCTVSGFSLTGYGVNWVRQPPGKGLEWLGMIWGDGSTDYNSALKSRLSIRKDNSKSQVFLKMNSLQTDDTARYYCARDKGYDGYYYAMDYWGQGTSVTVSS VL: DIQMTQSPASLSASVGETVTITCRASENIYSYLAWYQQKQGKSPQLLVYDAKTLAEGVPSRFSGSGSGTQFSLKINSLQPEDFGSYYCQHHYGIPYTFGGGTKLEIKR
3 | binds | cNB7 antibody (antibody, human IgG1, V domains shown, Mouse variable regions on human IgG1 / human kappa constant regions; also called chimeric NB7 antibody; NB7 chimeric anti-human TLR7 antibody) VH: DVQLQESGPGLVKPSQSLSLTCTVTGYSITSDYAWNWIRQFPGNKLEWMGHISYRGNTNYNPSLKSRISITRDTSKNQFFLQLNSVTTEDTATYYCASWNYYGYVDYAMDYWGQGTSVTVSS VL: DIQMTQTPSSLSASLGDRVTISCRASQDISNYLNWYQQKPDGTVKLLIYYTSRLHSGVPSRFSGSGSGTDYSLTINNLEQEDIATYFCQQGDTFPTFGGGTKLEIKR
